Here are results for five molecules from patent US20250027955A1, “ETHYLENE RECEPTORS AND BINDING DOMAINS WITH MODIFIED BINDING KINETICS FOR ETHYLENE” (Trustees of Dartmouth College, priority 2022, published 2025).

A short description of assay [1]: Saturable [14C]ethylene binding to yeast transgenically expressing ETR1. More on the design: species or system Saccharomyces cerevisiae. The conditions noted are these: 0.21 μL L^−1 [14C]ethylene; % of wild-type binding. From the text: Saturable ethylene binding of the ETR1 Asp25 mutants was examined by heterologous expression in yeast, with binding to [^14C]ethylene determined in the presence or absence of excess [^12C]ethylene (FIG. 2C). […] This included the ETR1^D25A mutant, consistent with previous observations, as well as for the ETR1^D25N and ETR1^D25Q mutants (FIG. 2C). Results from the ethylene binding assay are therefore consistent with the negative charge at D25 playing a significant role in mediating high-affinity ethylene binding.
[^14C]ethylene (specific activity=116 mCi/mmol) was obtained from ViTrax Radiochemicals (Placentia, CA) and trapped as the mercuric perchlorate complex as described. For ethylene binding assays in yeast, ETR1 was expressed in the yeast Saccharomyces cerevisiae (strain FY834) using the vector pYcDE-2 and a constitutive ADC1 promoter. The yeast growth media was supplemented with 40 μg L^−1 copper sulfate. Saturable ethylene binding to yeast was determined by analyzing binding of 0.3 g yeast per sample to 0.21 μL L^−1 [^14C]ethylene, in the presence or absence of excess [^12C]ethylene.

The test system of assay [2] is Arabidopsis seedlings, etr1 etr2 ein4 background. Kind of assay: Triple-response hypocotyl growth assay of dark-grown seedlings expressing ETR1 transgenes. Type of assay: in vivo. The conditions noted are these: for hypocotyl growth response to ethylene: dark-grown seedlings, 0 or 1 μL L^−1 ethylene. How it is done:
Functionality of the ETR1 Asp25 mutants was tested by transgenic expression in the etr1 etr2 ein4 Arabidopsis background.
Applicant can thus exploit the triple mutant to assess the ability of the ETR1 transgenes to rescue growth in the absence of ethylene as well as their ability to mediate a response to ethylene. Such an analysis indicates whether the encoded receptors are able to assume the ‘on’ conformation that represses the ethylene response in air, as well as the ‘off’ conformation that occurs in response to ethylene binding.
All Arabidopsis lines were of the Columbia (Col-0) accession. The etr1-1 and etr1-6 etr2-3 ein4-4 mutant lines have been described. Analysis of the triple response of dark-grown Arabidopsis seedlings to ethylene was performed as described previously. Briefly, seedlings were grown at 22° C. on vertically oriented plates on half-strength Murashige and Skoog basal medium with Gamborg's vitamins (pH 5.75; Sigma), 0.8% (w/v) agar, and 5 μM aminoethoxyvinylglycine (AVG) to inhibit ethylene biosynthesis. The stratified seed was exposed to light for 8 hr and then moved to the dark in the presence or absence of ethylene, with analysis of the seedling growth being performed following 4 days total growth. For short-term kinetic analysis of dark-grown seedlings, time-lapse imaging and growth rate analysis of hypocotyls were carried out as described previously.

B1: ETR1^K91R: ETR1 with basic Lys91 replaced by Arg (protein, UniProt P49333 1-738, looked up, variant K91R)
Ethylene receptor 1: MEVCNCIEPQWPADELLMKYQYISDFFIAIAYFSIPLELIYFVKKSAVFPYRWVLVQFGAFIVLCGATHLINLWTFTTHSRTVALVMTTARVLTAVVSCATALMLVHIIPDLLSVKTRELFLKNKAAELDREMGLIRTQEETGRHVRMLTHEIRSTLDRHTILKTTLVELGRTLALEECALWMPTRTGLELQLSYTLRHQHPVEYTVPIQLPVINQVFGTSRAVKISPNSPVARLRPVSGKYMLGEVVAVRVPLLHLSNFQINDWPELSTKRYALMVLMLPSDSARQWHVHELELVEVVADQVAVALSHAAILEESMRARDLLMEQNVALDLARREAETAIRARNDFLAVMNHEMRTPMHAIIALSSLLQETELTPEQRLMVETILKSSNLLATLMNDVLDLSRLEDGSLQLELGTFNLHTLFREVLNLIKPIAVVKKLPITLNLAPDLPEFVVGDEKRLMQIILNIVGNAVKFSKQGSISVTALVTKSDTRAADFFVVPTGSHFYLRVKVKDSGAGINPQDIPKIFTKFAQTQSLATRSSGGSGLGLAISKRFVNLMEGNIWIESDGLGKGCTAIFDVKLGISERSNESKQSGIPKVPAIPRHSNFTGLKVLVMDENGVSRMVTKGLLVHLGCEVTTVSSNEECLRVVSHEHKVVFMDVCMPGVENYQIALRIHEKFTKQRHQRPLLVALSGNTDKSTKEKCMSFGLDGVLLKPVSLDNIRDVLSDLLEPRVLYEGM
As to B1, in assay [1], the “ethylene binding relative to ETR1^wt” value amounted to 63%. Moreover, the “hypocotyl growth response to ethylene” value in assay [2] was “conferred ethylene hyposensitivity”.

B2: ETR1^K91M: ETR1 with Lys91 replaced by a nonpolar sidechain of similar size (Met) (protein, UniProt P49333 1-738, looked up, variant K91M)
Ethylene receptor 1: MEVCNCIEPQWPADELLMKYQYISDFFIAIAYFSIPLELIYFVKKSAVFPYRWVLVQFGAFIVLCGATHLINLWTFTTHSRTVALVMTTAMVLTAVVSCATALMLVHIIPDLLSVKTRELFLKNKAAELDREMGLIRTQEETGRHVRMLTHEIRSTLDRHTILKTTLVELGRTLALEECALWMPTRTGLELQLSYTLRHQHPVEYTVPIQLPVINQVFGTSRAVKISPNSPVARLRPVSGKYMLGEVVAVRVPLLHLSNFQINDWPELSTKRYALMVLMLPSDSARQWHVHELELVEVVADQVAVALSHAAILEESMRARDLLMEQNVALDLARREAETAIRARNDFLAVMNHEMRTPMHAIIALSSLLQETELTPEQRLMVETILKSSNLLATLMNDVLDLSRLEDGSLQLELGTFNLHTLFREVLNLIKPIAVVKKLPITLNLAPDLPEFVVGDEKRLMQIILNIVGNAVKFSKQGSISVTALVTKSDTRAADFFVVPTGSHFYLRVKVKDSGAGINPQDIPKIFTKFAQTQSLATRSSGGSGLGLAISKRFVNLMEGNIWIESDGLGKGCTAIFDVKLGISERSNESKQSGIPKVPAIPRHSNFTGLKVLVMDENGVSRMVTKGLLVHLGCEVTTVSSNEECLRVVSHEHKVVFMDVCMPGVENYQIALRIHEKFTKQRHQRPLLVALSGNTDKSTKEKCMSFGLDGVLLKPVSLDNIRDVLSDLLEPRVLYEGM
As for B2, the “ethylene binding relative to ETR1^wt” value in assay [1] is reported as “approximately 6%”. Further, the “rescue of growth of etr1 etr2 ein4 triple mutant in air” value in assay [2] (absence of ethylene, hypocotyl and adult shoot growth) is recorded as “failed to rescue seedling growth efficiently”. Moreover, the “hypocotyl growth response to ethylene” value in assay [2] is on record as “partial ethylene hyposensitivity”.

B3: ETR1^D25N,K91M: ETR1 combining Asp25Asn with K91M (protein, UniProt P49333 1-738, looked up, variant D25N K91M)
Ethylene receptor 1: MEVCNCIEPQWPADELLMKYQYISNFFIAIAYFSIPLELIYFVKKSAVFPYRWVLVQFGAFIVLCGATHLINLWTFTTHSRTVALVMTTAMVLTAVVSCATALMLVHIIPDLLSVKTRELFLKNKAAELDREMGLIRTQEETGRHVRMLTHEIRSTLDRHTILKTTLVELGRTLALEECALWMPTRTGLELQLSYTLRHQHPVEYTVPIQLPVINQVFGTSRAVKISPNSPVARLRPVSGKYMLGEVVAVRVPLLHLSNFQINDWPELSTKRYALMVLMLPSDSARQWHVHELELVEVVADQVAVALSHAAILEESMRARDLLMEQNVALDLARREAETAIRARNDFLAVMNHEMRTPMHAIIALSSLLQETELTPEQRLMVETILKSSNLLATLMNDVLDLSRLEDGSLQLELGTFNLHTLFREVLNLIKPIAVVKKLPITLNLAPDLPEFVVGDEKRLMQIILNIVGNAVKFSKQGSISVTALVTKSDTRAADFFVVPTGSHFYLRVKVKDSGAGINPQDIPKIFTKFAQTQSLATRSSGGSGLGLAISKRFVNLMEGNIWIESDGLGKGCTAIFDVKLGISERSNESKQSGIPKVPAIPRHSNFTGLKVLVMDENGVSRMVTKGLLVHLGCEVTTVSSNEECLRVVSHEHKVVFMDVCMPGVENYQIALRIHEKFTKQRHQRPLLVALSGNTDKSTKEKCMSFGLDGVLLKPVSLDNIRDVLSDLLEPRVLYEGM
For the molecule B3, in assay [2], the “hypocotyl growth response to ethylene” value is “further reduction in the ability to rescue seedling growth and respond to ethylene”.

B4: ETR1^D25N,K91R: ETR1 combining Asp25Asn with K91R (protein, UniProt P49333 1-738, looked up, variant D25N K91R)
Ethylene receptor 1: MEVCNCIEPQWPADELLMKYQYISNFFIAIAYFSIPLELIYFVKKSAVFPYRWVLVQFGAFIVLCGATHLINLWTFTTHSRTVALVMTTARVLTAVVSCATALMLVHIIPDLLSVKTRELFLKNKAAELDREMGLIRTQEETGRHVRMLTHEIRSTLDRHTILKTTLVELGRTLALEECALWMPTRTGLELQLSYTLRHQHPVEYTVPIQLPVINQVFGTSRAVKISPNSPVARLRPVSGKYMLGEVVAVRVPLLHLSNFQINDWPELSTKRYALMVLMLPSDSARQWHVHELELVEVVADQVAVALSHAAILEESMRARDLLMEQNVALDLARREAETAIRARNDFLAVMNHEMRTPMHAIIALSSLLQETELTPEQRLMVETILKSSNLLATLMNDVLDLSRLEDGSLQLELGTFNLHTLFREVLNLIKPIAVVKKLPITLNLAPDLPEFVVGDEKRLMQIILNIVGNAVKFSKQGSISVTALVTKSDTRAADFFVVPTGSHFYLRVKVKDSGAGINPQDIPKIFTKFAQTQSLATRSSGGSGLGLAISKRFVNLMEGNIWIESDGLGKGCTAIFDVKLGISERSNESKQSGIPKVPAIPRHSNFTGLKVLVMDENGVSRMVTKGLLVHLGCEVTTVSSNEECLRVVSHEHKVVFMDVCMPGVENYQIALRIHEKFTKQRHQRPLLVALSGNTDKSTKEKCMSFGLDGVLLKPVSLDNIRDVLSDLLEPRVLYEGM
On to B4, for which the “hypocotyl growth response to ethylene” value in assay [2] is recorded as “more insensitive to ethylene than the ETR1^K91R mutant”.

B5: ETR1^D25N,K91A: ETR1 combining Asp25Asn with K91A (protein, UniProt P49333 1-738, looked up, variant D25N K91A)
Ethylene receptor 1: MEVCNCIEPQWPADELLMKYQYISNFFIAIAYFSIPLELIYFVKKSAVFPYRWVLVQFGAFIVLCGATHLINLWTFTTHSRTVALVMTTAAVLTAVVSCATALMLVHIIPDLLSVKTRELFLKNKAAELDREMGLIRTQEETGRHVRMLTHEIRSTLDRHTILKTTLVELGRTLALEECALWMPTRTGLELQLSYTLRHQHPVEYTVPIQLPVINQVFGTSRAVKISPNSPVARLRPVSGKYMLGEVVAVRVPLLHLSNFQINDWPELSTKRYALMVLMLPSDSARQWHVHELELVEVVADQVAVALSHAAILEESMRARDLLMEQNVALDLARREAETAIRARNDFLAVMNHEMRTPMHAIIALSSLLQETELTPEQRLMVETILKSSNLLATLMNDVLDLSRLEDGSLQLELGTFNLHTLFREVLNLIKPIAVVKKLPITLNLAPDLPEFVVGDEKRLMQIILNIVGNAVKFSKQGSISVTALVTKSDTRAADFFVVPTGSHFYLRVKVKDSGAGINPQDIPKIFTKFAQTQSLATRSSGGSGLGLAISKRFVNLMEGNIWIESDGLGKGCTAIFDVKLGISERSNESKQSGIPKVPAIPRHSNFTGLKVLVMDENGVSRMVTKGLLVHLGCEVTTVSSNEECLRVVSHEHKVVFMDVCMPGVENYQIALRIHEKFTKQRHQRPLLVALSGNTDKSTKEKCMSFGLDGVLLKPVSLDNIRDVLSDLLEPRVLYEGM
Take B5: the “hypocotyl growth response to ethylene” value in assay [2] is recorded as “all ethylene insensitive”.
